To fix the notation:
B1: GLS3000 V94P (antibody, name in Kabat numbering, V domains shown)
VH: QVQLVESGGGVVQPGRSLRLSCAASGFTFSNAWMHWVRQAPGKGLEWVAQIKAKSNNYATYYAESVKGRFTISRDDSKNSLYLQMNSLKTEDTAVYYCRYVHYGAYYGVDAWGQGTTVTVSS
VL: DIVMTQSPLSLPVTPGEPASISCRSSQSLVHSNRNTYLHWYQQKPGQAPRLLIYKVSNRFSGVPDRFSGSGSGTDFTLKISRVEAEDVGVYYCGQGTQPPYTFGQGTKLEIK
notes: one-arm IgG as m2
B2: GLS3000 Y32A (antibody, name in Kabat numbering, V domains shown)
VH: QVQLVESGGGVVQPGRSLRLSCAASGFTFSNAWMHWVRQAPGKGLEWVAQIKAKSNNYATYYAESVKGRFTISRDDSKNSLYLQMNSLKTEDTAVYYCRYVHYGAYYGVDAWGQGTTVTVSS
VL: DIVMTQSPLSLPVTPGEPASISCRSSQSLVHSNRNTALHWYQQKPGQAPRLLIYKVSNRFSGVPDRFSGSGSGTDFTLKISRVEAEDVGVYYCGQGTQVPYTFGQGTKLEIK
notes: one-arm IgG as m2
B3: GLS3000 V94W (antibody, name in Kabat numbering, V domains shown)
VH: QVQLVESGGGVVQPGRSLRLSCAASGFTFSNAWMHWVRQAPGKGLEWVAQIKAKSNNYATYYAESVKGRFTISRDDSKNSLYLQMNSLKTEDTAVYYCRYVHYGAYYGVDAWGQGTTVTVSS
VL: DIVMTQSPLSLPVTPGEPASISCRSSQSLVHSNRNTYLHWYQQKPGQAPRLLIYKVSNRFSGVPDRFSGSGSGTDFTLKISRVEAEDVGVYYCGQGTQWPYTFGQGTKLEIK
notes: one-arm IgG as m2
B4: GLS3000 V94T (antibody, name in Kabat numbering, V domains shown)
VH: QVQLVESGGGVVQPGRSLRLSCAASGFTFSNAWMHWVRQAPGKGLEWVAQIKAKSNNYATYYAESVKGRFTISRDDSKNSLYLQMNSLKTEDTAVYYCRYVHYGAYYGVDAWGQGTTVTVSS
VL: DIVMTQSPLSLPVTPGEPASISCRSSQSLVHSNRNTYLHWYQQKPGQAPRLLIYKVSNRFSGVPDRFSGSGSGTDFTLKISRVEAEDVGVYYCGQGTQTPYTFGQGTKLEIK
notes: one-arm IgG as m2
B5: GLS3000 V94R (antibody, name in Kabat numbering, V domains shown)
VH: QVQLVESGGGVVQPGRSLRLSCAASGFTFSNAWMHWVRQAPGKGLEWVAQIKAKSNNYATYYAESVKGRFTISRDDSKNSLYLQMNSLKTEDTAVYYCRYVHYGAYYGVDAWGQGTTVTVSS
VL: DIVMTQSPLSLPVTPGEPASISCRSSQSLVHSNRNTYLHWYQQKPGQAPRLLIYKVSNRFSGVPDRFSGSGSGTDFTLKISRVEAEDVGVYYCGQGTQRPYTFGQGTKLEIK
notes: one-arm IgG as m2
B6: GLS3000 V94Q (antibody, name in Kabat numbering, V domains shown)
VH: QVQLVESGGGVVQPGRSLRLSCAASGFTFSNAWMHWVRQAPGKGLEWVAQIKAKSNNYATYYAESVKGRFTISRDDSKNSLYLQMNSLKTEDTAVYYCRYVHYGAYYGVDAWGQGTTVTVSS
VL: DIVMTQSPLSLPVTPGEPASISCRSSQSLVHSNRNTYLHWYQQKPGQAPRLLIYKVSNRFSGVPDRFSGSGSGTDFTLKISRVEAEDVGVYYCGQGTQQPYTFGQGTKLEIK
notes: one-arm IgG as m2
B7: GLS3000 V94S (antibody, name in Kabat numbering, V domains shown)
VH: QVQLVESGGGVVQPGRSLRLSCAASGFTFSNAWMHWVRQAPGKGLEWVAQIKAKSNNYATYYAESVKGRFTISRDDSKNSLYLQMNSLKTEDTAVYYCRYVHYGAYYGVDAWGQGTTVTVSS
VL: DIVMTQSPLSLPVTPGEPASISCRSSQSLVHSNRNTYLHWYQQKPGQAPRLLIYKVSNRFSGVPDRFSGSGSGTDFTLKISRVEAEDVGVYYCGQGTQSPYTFGQGTKLEIK
notes: one-arm IgG as m2
B8: GLS3000 V94Y (antibody, name in Kabat numbering, V domains shown)
VH: QVQLVESGGGVVQPGRSLRLSCAASGFTFSNAWMHWVRQAPGKGLEWVAQIKAKSNNYATYYAESVKGRFTISRDDSKNSLYLQMNSLKTEDTAVYYCRYVHYGAYYGVDAWGQGTTVTVSS
VL: DIVMTQSPLSLPVTPGEPASISCRSSQSLVHSNRNTYLHWYQQKPGQAPRLLIYKVSNRFSGVPDRFSGSGSGTDFTLKISRVEAEDVGVYYCGQGTQYPYTFGQGTKLEIK
notes: one-arm IgG as m2

For the experiment, the target named is T1, CD3 epsilon homodimer protein (UniProt P07766 23-126).
T1 construct: also called CD3 (CD3 epsilon)
T1 sequence (P07766 23-126): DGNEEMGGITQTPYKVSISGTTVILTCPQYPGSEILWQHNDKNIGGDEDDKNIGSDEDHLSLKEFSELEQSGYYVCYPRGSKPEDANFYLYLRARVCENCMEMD
As to the kind of experiment: SPR Biacore T200, CD3e homodimer on chip, vs unaltered GLS3000 antibody. For orientation: Surface plasmon resonance follows binding to a sensor surface in real time, without labels.
Consider B1, for which the “ratio of amounts bound (Z=Y/X)” value is 1.26.
In the case of B2 it was 0.24; in that of B3, 0.58; in that of B4, 0.93.
Take B5: the “ratio of amounts bound (Z=Y/X)” value came out at 0.66.
On to B6, for which the “ratio of amounts bound (Z=Y/X)” value was found to be 0.76.
To B7 belongs 0.93; to B8, 0.63.

Source of the values: patent US20210388087A1 (Chugai, published 2021).
